Test results published in patent US20240116985A1 (published 2024).
Starred links: 1 amine or outer side, 2 acyl side, 3 side chain; linkers in the order of their positions; H or OH if unused. Positions of bridges follow the written chain, without caps; N, C: chain ends. Non-standard residues stand in square brackets, D forms with d. Primed or numbered codes have the meaning given here. No end group written: not given here. PyrS2(3) = (S)-3-amino-1-((pent-4-en-1-yloxy)carbonyl)pyrrolidine-3-carboxylic acid, stapling residue, C=CCCCOC(=O)N1CC[C@@](N[*:1])(C(=O)[*:2])C1; PyrS2″ = (S)-3-amino-1-((pent-4-en-1-yloxy)carbonyl)pyrrolidine-3-carboxylic acid (stapling residue), C=CCCCOC(=O)N1CC[C@@](N[*:1])(C(=O)[*:2])C1; B5(16) = 2-amino-2-(pent-4-en-1-yl)hept-6-enoic acid = 2,2-bis(4-pentenyl)glycine (stitching residue), C=CCCCC(CCCC=C)(N[*:1])C(=O)[*:2]; B5(32) = 2-amino-2-(pent-4-en-1-yl)hept-6-enoic acid (bis-4-pentenylglycine, two alkene side chains), C=CCCCC(CCCC=C)(N[*:1])C(=O)[*:2]; B5(4) = 2,2-bis(4-pentenyl)glycine = 2-amino-2-(pent-4-en-1-yl)hept-6-enoic acid (stitching residue), C=CCCCC(CCCC=C)(N[*:1])C(=O)[*:2]; TfeGA = (S)-2-amino-3-((carboxymethyl)(2,2,2-trifluoroethyl)amino)propanoic acid, O=C([C@H](CN(CC(=O)[*:3])CC(F)(F)F)N[*:1])[*:2]; PyrS2 = (S)-3-amino-1-((pent-4-en-1-yloxy)carbonyl)pyrrolidine-3-carboxylic acid, C=CCCCOC(=O)N1CC[C@@](N[*:1])(C(=O)[*:2])C1; PyrS2(5) = (S)-3-amino-1-((alkenyloxy)carbonyl)pyrrolidine-3-carboxylic acid, carbamate stapling residue; (Morph)GlnR = (S)-2-amino-5-morpholino-5-oxopentanoic acid, O=C(CC[C@H](N[*:1])C(=O)[*:2])N1CCOCC1; B5(3) = 2,2-bis(4-pentenyl)glycine (stitching residue), C=CCCCC(CCCC=C)(N[*:1])C(=O)[*:2]; B5″ = 2,2-bis(4-pentenyl)glycine, stitching residue, C=CCCCC(CCCC=C)(N[*:1])C(=O)[*:2]; Phe(3-COOH) = N[C@@H](Cc1cccc(C(=O)O)c1)C(=O)O; 2F3MeF = Cc1cccc(C[C@H](N[*:1])C(=O)[*:2])c1F; Phe(2-CF3) = N[C@@H](Cc1ccccc1C(F)(F)F)C(=O)O; Phe(2-Cl) = N[C@@H](Cc1ccccc1Cl)C(=O)O; Bta = N[C@@H](Cc1csc2ccccc12)C(=O)O; αAllylPro = C=CC[C@@]1(C(=O)O)CCCN1; tBuAla = CC(C)(C)C[C@H](N)C(=O)O; 3Thi = N[C@@H](Cc1ccsc1)C(=O)O; Nle = CCCC[C@H](N)C(=O)O

Tests used:
Experiment in all cases: cell-based or functional assay
[1] = target: T1, beta-catenin in DLD1 TCF/LEF luciferase reporter cells (UniProt P35222 1-781)
T1 sequence (looked up): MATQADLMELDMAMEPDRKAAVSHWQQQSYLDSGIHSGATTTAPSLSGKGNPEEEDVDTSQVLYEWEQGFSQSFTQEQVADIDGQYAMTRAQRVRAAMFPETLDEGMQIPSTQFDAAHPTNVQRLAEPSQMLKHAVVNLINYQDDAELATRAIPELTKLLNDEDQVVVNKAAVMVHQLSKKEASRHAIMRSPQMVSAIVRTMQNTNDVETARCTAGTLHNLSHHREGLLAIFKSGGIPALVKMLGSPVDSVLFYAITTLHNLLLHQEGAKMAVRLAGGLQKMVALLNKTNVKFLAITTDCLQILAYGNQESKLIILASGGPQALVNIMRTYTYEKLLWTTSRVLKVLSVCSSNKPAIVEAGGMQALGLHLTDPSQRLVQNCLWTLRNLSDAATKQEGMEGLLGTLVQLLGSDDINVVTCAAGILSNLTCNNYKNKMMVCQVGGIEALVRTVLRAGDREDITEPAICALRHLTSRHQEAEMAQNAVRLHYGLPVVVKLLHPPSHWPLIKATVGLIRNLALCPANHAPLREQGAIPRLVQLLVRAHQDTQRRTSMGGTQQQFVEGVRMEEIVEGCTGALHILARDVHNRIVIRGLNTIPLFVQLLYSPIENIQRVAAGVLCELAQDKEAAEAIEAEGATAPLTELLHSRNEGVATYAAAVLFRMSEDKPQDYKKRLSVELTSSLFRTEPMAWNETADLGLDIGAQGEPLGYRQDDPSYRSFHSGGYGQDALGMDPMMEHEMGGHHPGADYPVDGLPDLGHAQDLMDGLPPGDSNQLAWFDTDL

B-cat-Halo [2] = target: T2, B-cat-Halo (UniProt P35222 1-781)
T2 sequence (looked up): T1 sequence (looked up)

[3] = target: T3, beta-catenin in DLD1 TCF/LEF luciferase reporter cells (UniProt P35222 1-781); remark: listed apart in the source
T3 sequence (looked up): T1 sequence (looked up)

B-cat-Halo [4] = target: T4, B-cat-Halo (UniProt P35222 1-781); remark: listed apart in the source
T4 sequence (looked up): T1 sequence (looked up)

[5] = target: T5, B-cat-Halo (Nano-BRET construct expressed in HEK293 cells) (UniProt P35222 1-781)
T5 sequence (looked up): T1 sequence (looked up)

[6] = target: T6, beta-catenin in DLD1 TCF/LEF luciferase reporter cells (UniProt P35222 1-781); remark: listed apart in the source
T6 sequence (looked up): T1 sequence (looked up)

[7] = target: T7, B-cat-Halo (beta-catenin HaloTag construct expressed in HEK293 cells) (UniProt P35222 1-781)
T7 sequence (looked up): T1 sequence (looked up)

Bcat-Halo = target: T8, Bcat-Halo (UniProt P35222 1-781)
T8 sequence (looked up): T1 sequence (looked up)

[8] = target: T9, beta-catenin in DLD1 TCF/LEF luciferase reporter cells (UniProt P35222 2-781)
T9 sequence (looked up): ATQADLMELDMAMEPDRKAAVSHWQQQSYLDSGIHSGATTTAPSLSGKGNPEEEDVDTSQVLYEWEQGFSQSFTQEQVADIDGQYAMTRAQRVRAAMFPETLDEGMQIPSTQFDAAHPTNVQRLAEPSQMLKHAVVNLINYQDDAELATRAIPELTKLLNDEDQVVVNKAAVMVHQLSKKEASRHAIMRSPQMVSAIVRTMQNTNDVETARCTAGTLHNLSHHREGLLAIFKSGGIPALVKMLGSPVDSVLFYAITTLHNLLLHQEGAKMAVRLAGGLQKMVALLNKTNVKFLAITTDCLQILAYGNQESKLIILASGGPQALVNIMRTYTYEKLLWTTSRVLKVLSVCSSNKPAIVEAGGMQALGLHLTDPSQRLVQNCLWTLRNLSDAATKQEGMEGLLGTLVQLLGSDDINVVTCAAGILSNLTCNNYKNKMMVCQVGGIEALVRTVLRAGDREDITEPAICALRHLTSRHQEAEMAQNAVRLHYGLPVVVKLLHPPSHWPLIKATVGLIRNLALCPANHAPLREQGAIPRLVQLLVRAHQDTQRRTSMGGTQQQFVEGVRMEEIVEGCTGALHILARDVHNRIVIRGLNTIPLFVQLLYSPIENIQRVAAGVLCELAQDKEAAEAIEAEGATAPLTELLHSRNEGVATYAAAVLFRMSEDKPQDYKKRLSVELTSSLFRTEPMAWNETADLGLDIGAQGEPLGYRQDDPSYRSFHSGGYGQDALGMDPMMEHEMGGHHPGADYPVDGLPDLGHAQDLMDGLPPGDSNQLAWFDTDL

B-cat-Halo [9] = target: T10, B-cat-Halo (UniProt P35222 1-781); remark: listed apart in the source
T10 sequence (looked up): T1 sequence (looked up)

[10] = target: T11, beta-catenin in DLD1 TCF/LEF luciferase reporter cells (UniProt P35222 1-781); remark: listed apart in the source
T11 sequence (looked up): T1 sequence (looked up)

[11] = target: T12, B-cat-Halo (beta-catenin HaloTag construct expressed in HEK293 cells) (UniProt P35222 1-781); remark: listed apart in the source
T12 sequence (looked up): T1 sequence (looked up)

[12] = target: T13, beta-catenin in DLD1 TCF/LEF luciferase reporter cells (UniProt P35222 2-781); remark: listed apart in the source
T13 sequence (looked up): T9 sequence (looked up)

Ac-[αAllylPro]D[tBuAla][B5(4)]DDAAFL[PyrS2″][Phe(2-CF3)][Bta]Q-NH2 (staple 1-4, 4-11) [I-1318]
DLD1 4% Abs IC50 [1]: 3.9 µM
NanoBRET Abs IC50 (B-cat-Halo [2]): 4.8 µM

Ac-[αAllylPro]D[tBuAla][B5(32)]D[Phe(3-COOH)]AAFL[PyrS2][3Thi][Bta]NLLL-NH2 (staple 1-4, 4-11; also: later eluting staple isomer (HPLC peak)) [I-2276]
DLD1 4% Abs IC50 [3]: 3.9 µM
NanoBRET Abs IC50 (B-cat-Halo [4]): 4 µM

B1: I-873 (peptide)
peptide: Ac-[αAllylPro]D[tBuAla][B5(3)]DDAAFN[PyrS2″][3Thi][Bta]QAA
modifications: staple 1-4, 4-11; not fully specified; printed as Ac-PL3-Asp-Npg-B5-Asp-Asp-Ala-Ala-Phe-Asn-PyrS2-3Thi-BztA-Gln-Ala-Ala
NanoBRET IC50 [5]: 8.9 µM

B2: I-2520 (peptide)
peptide: Ac-[αAllylPro]D[tBuAla][B5(4)]DXQAFL[PyrS2][Phe(2-CF3)][Bta]A-NH2
modifications: staple 1-4, 4-11; not fully specified (residue 6); printed as Ac-PL3-Asp-Npg-B5-Asp-[CH2CChCO2H]TriAzDap-Gln-Ala-Phe-Leu-PyrS2-2F3MeF-BztA-Ala-NH2
DLD1 4% Abs IC50 (uM); TCF/LEF luciferase reporter assay [6]: 5.7 µM
NanoBRET Abs IC50 (uM); Bcat-Halo / TCF4-Luc in HEK293 cells [7]: 5.9 µM

Ac-[αAllylPro]D[tBuAla][B5(4)]D[Phe(3-COOH)]AAFL[PyrS2][3Thi][Bta]NLLLLL-NH2 (staple 1-4, 4-11; also: later eluting staple isomer) [I-2280]
DLD1 4% Abs IC50 [3]: > 20 µM
NanoBRET Abs IC50 (B-cat-Halo [4]): > 20 µM

Ac-[αAllylPro]D[tBuAla][B5(4)]D[Phe(3-COOH)][(AcPpz)GlnR]AFL[PyrS2″][2F3MeF][Bta]A-NH2 (staple 1-4, 4-11) [I-2319]
NanoBRET Abs IC50 (Bcat-Halo): 1 µM
DLD1 4% Abs IC50 [8]: 1.7 µM

Ac-[αAllylPro]D[tBuAla][B5″]D[TfeGA]AAFN[PyrS2(3)][3Thi][Bta]Q-NH2 (staple 1-4, 4-11) [I-761]
NanoBRET IC50 (B-cat-Halo [9]): 5 µM

Ac-[αAllylPro]D[tBuAla][B5(4)]D[Phe(3-COOH)][(Morph)GlnR]AFL[PyrS2″][2F3MeF][Bta]A-NH2 (staple 1-4, 4-11) [I-2315]
NanoBRET Abs IC50 (Bcat-Halo): 1.2 µM
DLD1 4% Abs IC50 [8]: 1.5 µM

Ac-[αAllylPro]D[tBuAla][B5(16)]D[Phe(3-COOH)][Nle]AFL[PyrS2(5)][Phe(2-Cl)][Bta]Q-NH2 (staple 1-4, 4-11) [I-1685]
DLD1 4% Abs IC50 [10]: 1.3 µM

Ac-[αAllylPro]D[tBuAla][B5(4)]D[Phe(3-COOH)]QAFL[PyrS2″][2F3MeF][Bta]A-NH2 (staple 1-4, 4-11) [I-2057]
NanoBRET Abs IC50 [11]: 1.5 µM
DLD1 4% Abs IC50 [12]: 4 µM
